Publication PMC9828152

Biological target: Sp1 (specific protein 1) (UniProt P08047)
Assay: anti-Flag co-IP, Sp1 blot
Settings: reference: Ets1 WT-Flag; sites Y283

- binding against the reference: weaker
Substance: Ets1 (human E26 transcription factor 1) (from UniProt P14921) Ets1 Y283F-Flag
